Patent US20230338569A1, “NaPi2b-TARGETED POLYMER ANTIBODY-DRUG CONJUGATE FOR THE TREATMENT OF OVARIAN CANCER” (Mersana Therapeutics, Inc., priority 2021, published 2023)

Tested on: patients with higher NaPi2b expression
Assay: MER-XMT-1536-1 clinical trial (ongoing, preliminary data), XMT-1536 monotherapy
Assay type: in vivo, human
Conditions: patients with higher NaPi2b expression (n=47); preliminary data from MER-XMT-1536-1

B1: XMT-1536: NaPi2b-targeted polymer antibody-drug conjugate: about 8-12 AF-HPA molecules conjugated to cysteines of antibody XMT-1535 via a PHF scaffold (conjugate, chains of the INN, looked up)
VH: QVQLVQSGAEVVKPGASVKMSCKASGYTFTGYNIHWVKQAPGQGLEWIGAIYPGNGDTSYKQKFRGRATLTADTSTSTVYMELSSLRSEDSAVYYCARGETARATFAYWGQGTLVTVSS
VL: DIQMTQSPSSLSASVGDRVTITCSASQDIGNFLNWYQQKPGKTVKVLIYYTSSLYSGVPSRFSGSGSGTDYTLTISSLQPEDFATYYCQQYSKLPLTFGQGTKLELK
modifications: AF-HPA payload via PHF polymer scaffold
notes: NaPi2b-targeted polymer antibody-drug conjugate: about 8-12 AF-HPA molecules conjugated to cysteines of antibody XMT-1535 via a PHF scaffold
DCR (disease control rate): 74% | ORR (objective response rate): 32% | median duration of response: approximately 5 months
